Test results from patent publication US20230078173A1 (ELIXIRON IMMUNOTHERAPEUTICS HONG KONG, published 2023).
Numbering of substitutions follows the chain as printed. Names may count otherwise.

T1: IL10Rα-Fc fusion protein (human, UniProt Q13651 22-235)
T1 construct: Bought from R&D Systems; also called human IL10Rα
T1 sequence (looked up): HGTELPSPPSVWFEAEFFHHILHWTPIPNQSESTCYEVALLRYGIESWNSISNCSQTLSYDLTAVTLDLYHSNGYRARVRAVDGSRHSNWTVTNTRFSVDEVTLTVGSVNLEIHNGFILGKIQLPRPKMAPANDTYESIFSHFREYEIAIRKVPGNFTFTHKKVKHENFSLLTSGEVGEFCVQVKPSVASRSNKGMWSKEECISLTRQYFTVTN

B1: PHS102 (antibody, human IgG1, kappa, N297A)
heavy: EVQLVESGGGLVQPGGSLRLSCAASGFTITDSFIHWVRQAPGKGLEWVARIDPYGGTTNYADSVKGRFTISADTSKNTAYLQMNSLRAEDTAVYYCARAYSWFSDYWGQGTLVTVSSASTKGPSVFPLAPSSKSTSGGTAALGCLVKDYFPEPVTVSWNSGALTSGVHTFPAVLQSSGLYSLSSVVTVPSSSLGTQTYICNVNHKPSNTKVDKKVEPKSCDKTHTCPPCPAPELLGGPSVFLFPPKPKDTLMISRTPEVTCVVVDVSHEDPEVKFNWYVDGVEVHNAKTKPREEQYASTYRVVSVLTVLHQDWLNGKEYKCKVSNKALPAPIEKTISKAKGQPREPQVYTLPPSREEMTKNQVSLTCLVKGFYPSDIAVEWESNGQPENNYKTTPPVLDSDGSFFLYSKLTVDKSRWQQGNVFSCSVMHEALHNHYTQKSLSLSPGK
light: DIQMTQSPSSLSASVGDRVTITCRAGQDVYKAVAWYQQKPGKAPKLLIYWSTNLYSGVPSRFSGSGSGTDFTLTISSLQPEDFATYYCQQGSTWPLTFGQGTKVEIKRTVAAPSVFIFPPSDEQLKSGTASVVCLLNNFYPREAKVQWKVDNALQSGNSQESVTEQDSKDSTYSLSSTLTLSKADYEKHKVYACEVTHQGLSSPVTKSFNRGEC
B2: PHS102.YT7H (antibody, human IgG1, kappa, N297A)
heavy: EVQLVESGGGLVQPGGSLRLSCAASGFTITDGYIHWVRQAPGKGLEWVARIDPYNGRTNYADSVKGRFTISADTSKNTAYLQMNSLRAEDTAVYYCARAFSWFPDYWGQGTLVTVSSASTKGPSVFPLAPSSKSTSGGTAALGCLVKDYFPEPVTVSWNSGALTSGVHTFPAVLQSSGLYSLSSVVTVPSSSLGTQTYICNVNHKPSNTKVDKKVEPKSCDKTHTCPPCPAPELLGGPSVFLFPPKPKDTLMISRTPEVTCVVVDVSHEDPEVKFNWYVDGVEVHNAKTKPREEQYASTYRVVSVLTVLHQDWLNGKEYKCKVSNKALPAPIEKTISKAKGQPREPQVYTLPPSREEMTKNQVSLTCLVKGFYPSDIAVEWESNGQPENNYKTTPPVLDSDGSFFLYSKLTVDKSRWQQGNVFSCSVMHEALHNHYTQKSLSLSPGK
light: B1 light with G91H, S92G, T93N, W94A, L96I
notes: full-length human IgG1-N297A / kappa
B3: PHS102.HSYPP31F (antibody, human IgG1, kappa, N297A, V domains shown)
VH: EVQLVESGGGLVQPGGSLRLSCAASGFTIEDSYIHWVRQAPGKGLEWVARIDPITGLTHYADSVKGRFTISADTSKNTAYLQMNSLRAEDTAVYYCARAFSWFPDYWGQGTLVTVSS
VL: DIQMTQSPSSLSASVGDRVTITCRAGQDVYKAVAWYQQKPGKAPKLLIYWSTNLYSGVPSRFSGSGSGTDFTLTISSLQPEDFATYYCQQIMEPPVTFGQGTKVEIKR
notes: as for B2
B4: PHS102.HSYPP411C (antibody, human IgG1, kappa, N297A, V domains shown)
VH: EVQLVESGGGLVQPGGSLRLSCAASGFTIDNTYIHWVRQAPGKGLEWVARIDPANGKTTYADSVKGRFTISADTSKNTANLQMNSLRAEDTAVYYCARSFSWWADYWGQGTLVTVSS
VL: B3 VL with I91F, M92N, E93L, P94Q, V96T
notes: as for B2
B5: PHS102.YT7A (antibody, human IgG1, kappa, N297A)
heavy: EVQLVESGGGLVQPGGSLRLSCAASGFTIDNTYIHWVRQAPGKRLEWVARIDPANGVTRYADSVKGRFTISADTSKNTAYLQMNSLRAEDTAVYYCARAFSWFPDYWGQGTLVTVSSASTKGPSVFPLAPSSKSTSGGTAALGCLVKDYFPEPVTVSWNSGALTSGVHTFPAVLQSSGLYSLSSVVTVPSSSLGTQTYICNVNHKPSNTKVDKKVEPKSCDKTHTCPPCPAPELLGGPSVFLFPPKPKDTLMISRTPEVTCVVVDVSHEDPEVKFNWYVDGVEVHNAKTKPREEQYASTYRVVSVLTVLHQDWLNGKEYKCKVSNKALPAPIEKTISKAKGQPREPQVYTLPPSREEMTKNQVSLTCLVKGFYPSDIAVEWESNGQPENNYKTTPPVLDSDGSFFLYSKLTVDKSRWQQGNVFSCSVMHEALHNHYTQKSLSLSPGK
light: B1 light with G91Y, S92G, T93I, W94A, L96P
notes: as for B2
B6: PHS102/IL10 (antibody, human IgG1, kappa, N297A)
heavy: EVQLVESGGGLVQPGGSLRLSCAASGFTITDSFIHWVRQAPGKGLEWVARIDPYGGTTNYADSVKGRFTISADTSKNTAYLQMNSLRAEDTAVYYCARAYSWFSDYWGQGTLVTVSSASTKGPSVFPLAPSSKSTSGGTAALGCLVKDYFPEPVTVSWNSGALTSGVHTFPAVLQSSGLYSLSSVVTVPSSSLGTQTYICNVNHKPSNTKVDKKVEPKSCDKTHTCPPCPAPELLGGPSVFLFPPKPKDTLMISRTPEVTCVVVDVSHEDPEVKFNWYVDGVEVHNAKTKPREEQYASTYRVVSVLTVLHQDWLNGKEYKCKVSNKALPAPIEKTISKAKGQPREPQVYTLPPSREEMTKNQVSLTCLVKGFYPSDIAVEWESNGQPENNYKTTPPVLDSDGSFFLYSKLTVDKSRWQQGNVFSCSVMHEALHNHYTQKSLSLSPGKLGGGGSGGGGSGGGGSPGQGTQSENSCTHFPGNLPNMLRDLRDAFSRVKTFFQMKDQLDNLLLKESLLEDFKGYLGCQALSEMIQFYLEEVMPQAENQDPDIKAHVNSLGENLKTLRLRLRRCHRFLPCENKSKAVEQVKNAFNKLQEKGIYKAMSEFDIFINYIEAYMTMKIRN
light: B1 light
B7: PHS102.YT7A/IL10 (antibody, human IgG1, kappa, N297A)
heavy: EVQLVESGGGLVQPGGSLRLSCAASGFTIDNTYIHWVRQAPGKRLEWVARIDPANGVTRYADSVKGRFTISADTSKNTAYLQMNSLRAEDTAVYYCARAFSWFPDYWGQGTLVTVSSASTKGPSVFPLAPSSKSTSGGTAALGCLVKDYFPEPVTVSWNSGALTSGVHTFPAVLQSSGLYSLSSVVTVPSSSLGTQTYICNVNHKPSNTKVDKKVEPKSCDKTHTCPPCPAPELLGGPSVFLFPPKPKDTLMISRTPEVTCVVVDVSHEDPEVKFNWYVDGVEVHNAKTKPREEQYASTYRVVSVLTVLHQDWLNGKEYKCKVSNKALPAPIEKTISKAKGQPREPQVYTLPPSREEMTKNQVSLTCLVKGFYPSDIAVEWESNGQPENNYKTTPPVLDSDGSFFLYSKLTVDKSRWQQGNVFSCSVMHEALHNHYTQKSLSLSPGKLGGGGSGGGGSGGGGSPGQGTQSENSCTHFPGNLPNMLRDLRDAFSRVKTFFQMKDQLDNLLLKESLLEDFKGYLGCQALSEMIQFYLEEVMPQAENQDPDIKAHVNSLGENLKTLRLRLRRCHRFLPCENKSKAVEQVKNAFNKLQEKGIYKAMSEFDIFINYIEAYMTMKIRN
light: B1 light with G91Y, S92G, T93I, W94A, L96P
B8: PHS102.YT7H/IL10 (antibody, human IgG1, kappa, N297A)
heavy: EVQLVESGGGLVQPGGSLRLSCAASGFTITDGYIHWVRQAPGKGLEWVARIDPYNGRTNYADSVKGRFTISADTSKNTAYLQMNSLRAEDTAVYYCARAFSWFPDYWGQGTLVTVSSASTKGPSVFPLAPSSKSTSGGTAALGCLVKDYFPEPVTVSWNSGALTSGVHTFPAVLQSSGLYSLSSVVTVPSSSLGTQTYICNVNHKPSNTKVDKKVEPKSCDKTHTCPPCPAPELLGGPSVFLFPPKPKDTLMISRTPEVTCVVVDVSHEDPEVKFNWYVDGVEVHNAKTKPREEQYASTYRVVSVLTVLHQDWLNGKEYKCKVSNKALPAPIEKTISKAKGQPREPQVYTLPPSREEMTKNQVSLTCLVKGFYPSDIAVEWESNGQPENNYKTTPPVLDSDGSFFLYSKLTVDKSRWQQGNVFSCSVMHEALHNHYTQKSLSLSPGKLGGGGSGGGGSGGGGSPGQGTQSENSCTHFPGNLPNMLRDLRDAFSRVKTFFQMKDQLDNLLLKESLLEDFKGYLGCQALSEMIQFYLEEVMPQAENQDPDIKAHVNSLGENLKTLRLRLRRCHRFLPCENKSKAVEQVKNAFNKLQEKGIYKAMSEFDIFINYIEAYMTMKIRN
light: B1 light with G91H, S92G, T93N, W94A, L96I
B9: PHS219/IL10 (antibody, human IgG1, kappa, N297A)
heavy: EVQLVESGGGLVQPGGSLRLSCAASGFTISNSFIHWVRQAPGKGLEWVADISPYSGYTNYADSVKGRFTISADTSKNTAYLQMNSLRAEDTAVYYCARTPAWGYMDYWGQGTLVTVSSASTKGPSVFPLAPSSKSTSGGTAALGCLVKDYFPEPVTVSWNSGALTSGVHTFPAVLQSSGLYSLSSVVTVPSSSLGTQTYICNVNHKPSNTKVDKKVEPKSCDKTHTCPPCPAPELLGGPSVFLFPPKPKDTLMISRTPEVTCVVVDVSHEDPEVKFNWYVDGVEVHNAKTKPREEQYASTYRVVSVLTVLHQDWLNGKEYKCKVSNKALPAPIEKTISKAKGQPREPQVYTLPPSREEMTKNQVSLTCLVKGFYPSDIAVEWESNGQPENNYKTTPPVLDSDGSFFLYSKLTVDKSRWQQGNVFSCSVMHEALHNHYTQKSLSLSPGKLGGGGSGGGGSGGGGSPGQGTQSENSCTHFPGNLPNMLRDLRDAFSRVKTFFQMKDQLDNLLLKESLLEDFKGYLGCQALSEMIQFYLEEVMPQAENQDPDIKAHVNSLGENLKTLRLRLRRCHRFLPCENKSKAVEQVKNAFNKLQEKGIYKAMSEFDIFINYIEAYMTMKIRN
light: DIQMTQSPSSLSASVGDRVTITCRASQDVSSSVAWYQQKPGKAQKLLISWATSLYSGVPSRFSGSGSGTDFTLTISSLQPEDFATYYCQQYNNFPYTFGQGTKVEIKRTVAAPSVFIFPPSDEQLKSGTASVVCLLNNFYPREAKVQWKVDNALQSGNSQESVTEQDSKDSTYSLSSTLTLSKADYEKHKVYACEVTHQGLSSPVTKSFNRGEC
B10: Atezolizumab/IL10 (antibody)
heavy: not shown
light: DIQMTQSPSSLSASVGDRVTITCRASQDVSTAVAWQQKPGKAPKLLIYSASFLYSGVPSRFSGSGSGTDFTLTISSLQPEDFATYYCQQYLYHPATFGQGTKVEIKRRTVAAPSVFIFPPSDEQLKSGTASVVCLLNNFYPREAKVQWKVDNALQSGNSQESVTEQDSKDSTYSLSSTLTLSKADYEKHKVYACEVTHQGLSSPVTKSFNRGEC
B11: Durvalumab/IL10 (antibody, human IgG1, kappa, N297A)
heavy: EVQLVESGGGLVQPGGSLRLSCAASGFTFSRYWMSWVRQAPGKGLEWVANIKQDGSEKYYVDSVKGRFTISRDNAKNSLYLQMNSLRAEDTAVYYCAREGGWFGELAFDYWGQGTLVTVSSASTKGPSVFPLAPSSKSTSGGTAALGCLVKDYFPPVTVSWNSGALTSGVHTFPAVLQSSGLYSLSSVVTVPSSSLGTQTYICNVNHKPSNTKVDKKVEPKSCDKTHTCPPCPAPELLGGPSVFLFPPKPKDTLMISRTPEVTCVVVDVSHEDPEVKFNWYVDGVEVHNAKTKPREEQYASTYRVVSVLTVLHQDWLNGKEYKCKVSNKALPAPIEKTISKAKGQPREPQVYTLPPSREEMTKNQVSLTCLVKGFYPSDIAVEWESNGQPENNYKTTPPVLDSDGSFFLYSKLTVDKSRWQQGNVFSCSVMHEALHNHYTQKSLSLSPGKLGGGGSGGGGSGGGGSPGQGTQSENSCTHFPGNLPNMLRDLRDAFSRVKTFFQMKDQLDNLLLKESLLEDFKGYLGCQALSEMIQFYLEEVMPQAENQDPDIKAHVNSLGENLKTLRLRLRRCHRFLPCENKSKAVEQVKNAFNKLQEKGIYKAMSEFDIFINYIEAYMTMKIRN
light: EIVLTQSPGTLSLSPGERATLSCRASQRVSSSYLAWYQQKPGQAPRLLIYDASSRATGIPDRFSGSGSGTDFTLTISRLEPEDFAWYYCQQYGSLPWTFGQGTKVEIKRTVAAPSVFIFPPSDEQLKSGTASVVCLLNNFYPREAKVQWKVDNALQSGNSQESVTEQDSKDSTYSLSSTLTLSKADYEKHKVYACEVTHQGLSSPVTKSFNRGEC
B12: PHS219 (antibody, human IgG1, kappa, N297A)
heavy: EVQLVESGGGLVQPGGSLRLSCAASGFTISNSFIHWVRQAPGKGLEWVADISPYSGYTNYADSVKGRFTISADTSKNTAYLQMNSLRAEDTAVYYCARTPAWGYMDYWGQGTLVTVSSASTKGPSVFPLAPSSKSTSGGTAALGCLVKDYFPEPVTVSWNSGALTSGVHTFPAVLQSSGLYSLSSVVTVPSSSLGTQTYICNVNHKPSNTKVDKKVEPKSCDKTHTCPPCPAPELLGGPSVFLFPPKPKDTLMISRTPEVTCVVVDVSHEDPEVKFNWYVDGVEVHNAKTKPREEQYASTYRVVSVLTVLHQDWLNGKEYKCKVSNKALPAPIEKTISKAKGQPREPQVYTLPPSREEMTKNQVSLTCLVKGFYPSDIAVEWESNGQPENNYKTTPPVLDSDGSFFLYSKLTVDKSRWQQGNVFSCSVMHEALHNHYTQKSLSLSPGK
light: B9 light
B13: PHS102.YP7G (antibody, human IgG1, kappa, N297A, V domains shown)
VH: B3 VH with E30D, S32T, I54A, T55N, L57M, H59R, T69M
VL: B3 VL with I91G, M92S, E93T, P94W, V96L
notes: as for B2
B14: PHS102.YT6D (antibody, human IgG1, kappa, N297A, V domains shown)
VH: B3 VH with E30S, S32G, I54L, L57R, H59M, F103W
VL: B3 VL with E93S, V96P
B15: PHS102.YP11F (antibody, human IgG1, kappa, N297A, V domains shown)
VH: B4 VH with A54V, N55S, K57R, T59R, N80D, S99A, W103F, A104P
VL: B3 VL with I91F, M92G, E93A, P94T, V96I
notes: as for B2
B16: PHS102.YT10H (antibody, human IgG1, kappa, N297A, V domains shown)
VH: B3 VH with E30S, S32A, D52E, I54L, T55S, L57R, H59D, P104M
VL: B3 VL with T74M, I91H, M92D, E93K, P94T, V96T
notes: as for B2
B17: Avelumab/IL10 (antibody, human IgG1, lambda)
heavy: not shown
light: QSALTQPASVSGSPGQSITISCTGTSSDVGGYNYVSWYQQHPGKAPKLMIYDVSNRPSGVSNRFSGSKSGNTASLTISGLQAEDEADYYCSSYTSSSTRVFGTGTKVTVLGQPKANPTVTLFPPSSEELQANKATLVCLISDFYPGAVTVAWKADGSPVKAGVETTKPSKQSNNKYAASSYLSLTPEQWKSHRSYSCQVTHEGSTVEKTVAPTECS
B18: Atezolizumab (antibody)
heavy: not shown
light: B10 light
notes: also called YW243.55.S70; MPDL3280A

What follows are binders tested against PD-L1 on PD-L1-presenting U2OS bioassay cells (UniProt Q9NZQ7 19-290) (assay: cell-based or functional assay).
Chain of PD-L1 on PD-L1-presenting U2OS bioassay cells (Q9NZQ7 19-290): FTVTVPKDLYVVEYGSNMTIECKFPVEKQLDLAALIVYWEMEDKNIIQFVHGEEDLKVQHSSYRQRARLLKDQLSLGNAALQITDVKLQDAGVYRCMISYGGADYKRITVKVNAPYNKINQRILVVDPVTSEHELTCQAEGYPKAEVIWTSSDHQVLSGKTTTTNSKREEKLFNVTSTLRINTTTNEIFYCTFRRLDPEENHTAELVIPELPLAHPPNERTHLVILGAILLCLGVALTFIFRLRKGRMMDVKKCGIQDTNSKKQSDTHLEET

| Binder | IC50, blocking PD-1/PD-L1 signaling (PathHunter PD-1 Signaling Bioassay, U2OS PD-L1 cells + Jurkat PD-1 signaling cells) |
| --- | --- |
| B1 | 3.18 nM |
| B2 | 3.48 nM |
| B3 | 3.56 nM |
| B4 | 3.74 nM |
| B5 | 6.07 nM |
| B6 | 4.22 nM |
| B7 | 4.87 nM |
| B8 | 2.47 nM |

Each binder was assayed against T2, recombinant human PD-L1-mFc fusion protein (human, UniProt Q9NZQ7 19-238) (assay: ELISA, human PD-L1-mFc immobilised (1 µg/mL), anti-human kappa-HRP detection).
T2 construct: also called hPD-L1; huPD-L1
T2 sequence (Q9NZQ7 19-238): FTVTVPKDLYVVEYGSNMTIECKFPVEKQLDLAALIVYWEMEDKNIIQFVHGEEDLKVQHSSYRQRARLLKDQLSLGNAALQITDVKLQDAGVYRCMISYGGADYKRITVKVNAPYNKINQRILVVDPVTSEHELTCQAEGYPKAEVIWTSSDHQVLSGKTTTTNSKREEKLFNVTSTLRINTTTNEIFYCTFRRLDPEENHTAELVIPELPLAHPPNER
Procedure: (§1) The wells were washed with wash solution (0.05% Tween20 in imidazole-buffered saline) and blocked with 1% BSA. […] After incubation at 37° C. for 1 hr, the wells were washed with wash solution. Peroxidase-conjugated Goat anti-human kappa Light chain antibody (Sigma) was applied to each well at 37° C. for 1 h incubation. […] After washing, the wells were developed with TMB substrate for 5-10 min at RT and then stopped with 1 N HCl. Thereafter, absorbance was measured at 450 nm and 650 nm. EC50 and IC50 values were calculated using GraphPad Prism7.

| Binder | EC50 |
| --- | --- |
| B1 | 0.0784 nM |
| B6 | 0.0798 nM |
| B9 | 0.164 nM |
| B10 | 0.0865 nM |
| B11 | 0.121 nM |
| B12 | 0.204 nM |

The binders below were run against T3, recombinant human PD-L1-His (human, UniProt Q9NZQ7 19-238) (assay: BLI (Octet RED96), antibody captured on AHC biosensor, PD-L1-His in solution, 1:1 model;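 note: rates obtained by 1:1 Langmuir fitting of the binding response, using a 2.5 min association phase then a 5 min dissociation phase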).
T3 construct: Analyte of the BLI assay; also called hPD-L1
T3 sequence (Q9NZQ7 19-238): as above
Procedure: Rate constants were calculated by curve fitting analyses (1:1 Langmuir model) of binding response with a 2.5-minute association and 5-minute dissociation interaction time.

| Binder | Kd | koff | kon |
| --- | --- | --- | --- |
| B1 | 14.4 nM | 0.00679 s⁻¹ | 473000 M⁻¹ s⁻¹ |
| B13 | 5.51 nM | 0.00136 s⁻¹ | 247000 M⁻¹ s⁻¹ |
| B2 | 6.16 nM | 0.00125 s⁻¹ | 203000 M⁻¹ s⁻¹ |
| B3 | 1.88 nM | 0.000542 s⁻¹ | 288000 M⁻¹ s⁻¹ |
| B4 | 2.03 nM | 0.000653 s⁻¹ | 321000 M⁻¹ s⁻¹ |
| B5 | 1.99 nM | 0.000603 s⁻¹ | 303000 M⁻¹ s⁻¹ |
| B14 | 2.16 nM | 0.000713 s⁻¹ | 330000 M⁻¹ s⁻¹ |
| B15 | 1.84 nM | 0.000615 s⁻¹ | 334000 M⁻¹ s⁻¹ |
| B16 | 1.92 nM | 0.00067 s⁻¹ | 350000 M⁻¹ s⁻¹ |

These binders were tested against T1, IL10Rα-Fc fusion protein (assay: ELISA, IL10Rα-Fc immobilised (1 µg/mL)).
Procedure: as §1

| Binder | EC50 |
| --- | --- |
| B6 | 94.3 nM |
| B9 | 66.3 nM |
| B10 | 87.2 nM |
| B17 | 25.9 nM |
| B11 | 37.5 nM |

These binders were tested against T4, recombinant cynomolgus PD-L1 (cynomolgus monkey, UniProt Q9NZQ7 19-238 (human entry)) (assay: ELISA, cynomolgus PD-L1 immobilised (1 µg/mL)).
T4 construct: also called cynoPD-L1; Cynomolgus PD-L1.ECD
T4 sequence (Q9NZQ7 other isoform, or with tags, fused parts or gaps limits assumed): as the sequence (Q9NZQ7 19-238) above, with A33T, A34S, S62N, R68Q, Q82R, F173L, T185A, T192I, H215L counted along it
Procedure: as §1

| Binder | EC50 |
| --- | --- |
| B1 | 0.216 nM |
| B18 | 0.14 nM |

Each binder was assayed against T2, recombinant human PD-L1-mFc fusion … (assay: competition ELISA, PD-L1 immobilised, competitor biotin-PD-1-Fc (30 µg/mL)).
Procedure: To test the competition activity, serial dilutions of anti-PD-L1 or anti-PD-L1/IL10 fusion proteins were added.
A recombinant human PD-L1-mFc fusion protein (1 μg/mL), recombinant cynomolgus PD-L1 (1 μg/mL; Sino Biological), or an IL10Rα-Fc fusion protein (1 μg/mL, R&D Systems) were immobilized on 96 well microtiter plate at a concentration of 1 μg/ml in Coating Solution (SeraCare) overnight at 4° C. The wells were washed with wash solution (0.05% Tween20 in imidazole-buffered saline) and blocked with 1% BSA. Serial dilutions of anti-PD-L1 or anti-PD-L1/IL10 fusion proteins were added to wells. After incubation at 37° C. for 1 hr, the wells were washed with wash solution. Peroxidase-conjugated Goat anti-human kappa Light chain antibody (Sigma) was applied to each well at 37° C. for 1 h incubation. […] After washing, the wells were developed with TMB substrate for 5-10 min at RT and then stopped with 1 N HCl. Thereafter, absorbance was measured at 450 nm and 650 nm. EC50 and IC50 values were calculated using GraphPad Prism7.

| Binder | IC50 |
| --- | --- |
| B1 | 0.182 nM |
| B6 | 0.061 nM |
| B9 | 1.2 nM |
| B18 | 0.239 nM |
| B10 | 0.124 nM |
| B11 | 0.188 nM |
| B12 | 38900 nM |
